The supplement of paper PMC9170038

Tested on: K4 kissing-loop RNA reporter
Test: apparent KD of K4 kissing-loop reporter; higher = weaker reporter binding
Details: Eterna round: R107
Method: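 RNA-MaP round R107: designed RNA switches with theophylline, tryptophan, arginine or FMN aptamers are transcribed on-chip within common flanks. They are titrated with a labelled K4 kissing-loop RNA reporter in RNA-MaP buffer (100 mM Tris pH 7.5, 80 mM KCl, 4 mM MgCl2), without ligand or with the indicated ligand. Median apparent KD per design.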

[1] = input ligand: theophylline 20 uM
[2] = input ligand: tryptophan 2.4 mM
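Further: bound reporter read as fluorescence of individual clusters on recovered sequencing chips by microscopy, with normalized cluster intensities fitted with a binding model.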

Row | Sequence | apparent KD of K4 kissing-loop reporter (input ligand: FMN 200 uM) [nM] | apparent KD of K4 kissing-loop reporter (input ligand: arginine 13.2 mM) [nM] | apparent KD of K4 kissing-loop reporter (input ligand: none) [nM] | apparent KD of K4 kissing-loop reporter [1] [nM] | apparent KD of K4 kissing-loop reporter [2] [nM]
1 | GGGCGUAUUCACCGAGUGAUGUUCGGAAGGAAGGAUAUUCAAGAUUGAAGAAGGUCCGGCCCAUCGGCCAUUAAACUUGAAAGGU [theeternabot_sameState_KL_FMN_A_48] | 171 | 113 | 139 | 162 | 117
2 | GGGUAUUACGGAGGAUAUGCACUGAGGAGGAGAAUAUAGUGAUGUUAUAUAAGAGGAAGGAGAAGAGUAGAAGGCCGUGGUGUUU [SSFMNB.J] | 171 | 126 | 170 | 195 | 109
3 | GGUAGCAUCGCGGCCGCCACUAAUCGCUAAGGCUCAGGACCCUAAUAGCGAGUGAUGUUCGCCCUUAGGACCGGGCGAUGCUACC | 114 | 93.3 | 101 | 87.5 | 119
4 | GGUAGCAUGGCGGCCGCCACUAUCAGGAGUGAUGUUCCAACGCAGAGCUUCAGCUAGUGUGUAAAUAGGACCGGGCCAUGCUACC | 414 | 69.8 | 512 | 177 | 866
5 | GGUAGCAUGGCGGCCGCCACUUGCACUCGUCUUGCAUAUUGGCCUAUGAUAGUAGUGAUGUUACUAAGGACCGGGCCAUGCUACC | 266 | 173 | 194 | 178 | 255
6 | GGUAUCCAGUACCAUUGCGUUAAAACAGAAGGAGCGAGAAUAGACUCAGGUAGGUCGCUGUUUAUAGUCGAGUGAUGUUCGAAUC [Same State Arginine A GF 14] | 202 | 281 | 265 | 315 | 188
7 | GGUGCUGUCUGUGCCGCCCUCCUCGUCCCUCGAGGACCGGUACGGCCGCCACUCGAGUGAUGUUCGGGUAGCCCUCCCUGCCAGC [BDazzled - #21 Exc. Tryptophan A] | 493 | 402 | 548 | 438 | 492
8 | GGUGUUGUUUGUGCUGUUUUCCUCGUUUCUCGAGGACCGGUACGGCCGCCACUCGAGUGAUGUUUGGGUAGCGAUCUUUGUUAGU [Bdazzled - #5 Exc. Tryptophan A] | 223 | 142 | 177 | 177 | 281
9 | GGUGUUGUUUGUGCUGUUUUCUUCGUUUCUCGAGGACCGGUACGGCCGCCACUCGAGUGAUGUUUGGGUAGCGAUGUUUGUUAGU [Bdazzled - #3 - Exc. Tryptophan A] | 473 | 287 | 373 | 360 | 470
10 | GGUUCCUCAGUGAUGUUGAGGUGACCUCGGCAGGAUAUAGGCAUUACUAGAAGGGCCAAAUGAACCCUGUCCAGCGGCACAGGGA [Arleorbile] | 147 | 213 | 331 | 298 | 252
11 | GGUUGAAGCACCCGGAGUGAUGUUCCGGAUACCAGCAAACCAACUUGCCCUUGGCAGCCGUAUAGCGUCCGGUGGGCCGAGCAUA [Beisadi] | 101 | 90.3 | 97 | 99.3 | 90
12 | GGUUUUAACCGCAGUGAUGUUGCGUUGAAACGAGGACCGGUACGGCCGCCACUCGAAAAGAAGCGGCCAAAUUAAAAUCGUAAAG [Exclusion Tryptophan A GF 23] | 129 | 162 | 144 | 164 | 114
13 | GUAAUCUUGCUCGAGUGAUGUUCGAGCGAAGGAGCGCGAGAAAUCGCAGGUAGGUCGCGCUCGAAAUAUGAGCGAACAAUUAUUA [Arg A Ex t2b] | 222 | 197 | 220 | 219 | 230
14 | GUACAUUGGAAACAAGAACAAAUAACCGAAGGAGCGCGUGAAAACGCAGGUAGGUCGCGGAAGCAGUGAUGUUGCAUUAGAGAUC [Same State Arginine A GF 16] | 79.2 | 103 | 61.1 | 106 | 60.3
15 | GUAUCGCUAGGAGGAUAUUUCAAUUUGACUCUUUGAGUUUUUACGGAGUGAUGUUCCGUUUUACGGAAAGAAGGCCUAGUGAUAC [FMN B 15] | 121 | 138 | 162 | 159 | 161
16 | GUAUGUGGAAACACGUACUUAUAUCCUAAGCAGGAUAUGCGGAAACGCAGAAGGGCUACCAACGAGUUUACCCAGUGAUGUUGGG [Ex FMN A 14] | 275 | 260 | 320 | 288 | 296
17 | GUCCAACCUGGAGGAUAUCUGCUGUCCAGUGAUGUUGGACACCUUAGUAAAGGCCGGGUAGCCCGCAGAGAAGGCCGGAGUUGCC [Isateron] | 265 | 354 | 429 | 390 | 329
18 | GUCCCAGUGAUGUUGGUAGGCGGGCGGGAUACCAGCGAAGACUCACGCCCUUGGCAGCCCACAUAUCCCGCGUAGGGAUUAGCCC [Same State - Theophylline A (Freestyle 22)] | 652 | 437 | 656 | 638 | 457
19 | GUCCGGAAGGCGGCUUCACGACCGUGGUGGGAGGAUAUGUCUAAGGACAGAAGGCCCAGUGAUGUUGGGCUUUAGGAGAGCCAUA [Ragele] | 310 | 128 | 143 | 116 | 118
20 | GUCUGCGUCUCGGCCGCCACUCACUAGUGAUGUUAGUAAGGAGCGACUAGCGCAGUCCUGAAGAUGAGGACCGGGAGACGCAGGA [Exclusion Tryptophan B GF5] | 141 | 110 | 119 | 91 | 358
21 | GUGAAGGAGCUGCAGUGAUGUUGCAGAAACUAGGAUAUCAGGAAACUGAGAAGGAGUCAACUCCUUCACCUAAAUACUGCAGAAA [KL-SSFMN-A23] | 104 | 130 | 158 | 157 | 147
22 | GUGAGGAUCCGAAGGAGCGUCCGCAAUCCAGUGAUGUUGGGUGUUGGUUAUAUUUAACGAGGACAGGUAGGUCGCGGAUUUUCAA [Same State Arginie B GF 22] | 202 | 126 | 172 | 193 | 159
